Laboratory results as given in the DeepSol protein solubility set.

Assay: soluble on expression in E. coli; label from the status in PepcDB or PDB records

Row | Sequence | soluble on expression in E. coli
1 | RAKGTLRIWAEPFTKLRVPKIFNLRMDPYEVADVTSNTYYDWMLDRAYMLVPAQTYVGRFLETFKEFPPRQKAASFSLDQVMEKLQENPNK | not soluble
2 | RALCDEDMKKVFTRLPSSSAIPLAVRRAQDMFVLMFLLRGLPFVDLAYLRKSDLRDNVITYRRRKTGRPLSVTLTPEALELLKKYMNRDSHSPYLFSLLKSGEGTKEAYREYQLALRSFNQQLTLLGEVLGLNDKLSSYTARHTWATTAYYCEIHPGIISEAMGHSSIKVTETYLKPFRNKKIDEANNQIIDFVKHSIAGVVS | not soluble
3 | RDFSPVPWSQYFESMEDVEVENETGKDTFRVYKSGSEGPVLLLLHGGGHSALSWAVFTAAIISRVQCRIVALDLRSHGETKVKNPEDLSAETMAKDVGNVVEAMYGDLPPPIMLIGHSMGGAIAVHTASSNLVPSLLGLCMIDVVEGTAMDALNSMQNFLRGRPKTFKSLENAIEWSVKSGQIRNLESARVSMVGQVKQCEGITSPEGSKKDHPYTWRIELAKTEKYWDGWFRGLSNLFLSCPIPKLLLLAGVDRLDKDLTIGQMQGKFQMQVLPQCGHAVHEDAPDKVAEAVATFLIRHRFAEPIGGFQCVFPGC | soluble
4 | RENRNGDLYSLIYGTVSSEAIDPVEKKPLYHFFPGSYVYSVGTIGCNFRCKHCQNWSISQVCLEDAYTKDILPEELVERALLSDSKSIAWTYNEPTIWHEYTYESAKLAKEAGLGTIYVTNGYMTPESLKHIAPYLDAANIDIKAFNEKFYHDIASAKLAPVLEASALAKELGIHVEITTLIIPGVNDSLDELRELSKWVYKNLGPDTPLHFTRFHPQYKMQDLSPTPVKTMENACKIATEEGMKYVYMGNV | not soluble
5 | RGEPYAGQVAVGATVINRTKNPKFPSTIAGVIYQPGAFTAIVDGQIHATMEPNSIRAARDALNGWDPSGGAIYYFNPATATSGWIWSRPLIIIIGKHRFCR | not soluble
6 | RGETIKGQFAVAEVILNRVQSERFPNTPCGVIRQGTGRKYQCQFTYTCDGRKEVIAEKQAYERVAKVARLAMDGAAESLTDGATYYHTTAVRPSWARRFTQTTKIGVHLFYRQGQRTASN | not soluble
7 | RGFQHGIRHNVEQFGMGTSAISFSTWRTSKEYGGYPKDRYIELTPADCDYLVKLNPDLIKGAAYYTNQWSYDVQYEDRTHSTPTKAVSGEYGNMVKTHLIEGRFLSTSDDAMKRKVIVLCEQTADVLFGESISPIGKYVNLSQIPFLVVGVCKGEQGQFSPNYIPFATYSGIFAKGFSLDCTLFMNCPSVRTEENVERLKVLLNRQLAFRKGYDPTDMEVPYVDAPVTDIKMMDKIFNGMD | not soluble
8 | RHMELSPDGNLKTTITIGDRLTYDITCNGRQILTPSPISMTLDNGTVWGENAKLSGTSRKSVDEMIPSPFYRASELRNHYNGLTLRFKKDWNVEFRAYNDGIAYRFVNQGKKPFRVVTEVSDYCFPSDMTASVPYVKSGKDGDYNSQFFNSFENTYTTDKLSKLNKQRLMFLPLVVDAGDGVKVCITESDLENYPGLYLSASEGANRLSSMHAPYPKRTVQGGHNQLQMLVKEHEDYIAKVDKPRNFPWRIAVVTTTDKDLAATNLSYLLGAPSRMSDLSWIKPGKVAWDWWNDWNLDGVDFVTGVNNPTYKAYIDFASANGIEYVILDEGWAVNLQADLMQVVKEIDLKELVDYAASKNVGIILWAGYHAFERDMENVCRHYAEMGVKGFKVDFMDRDDQEMTAFNYRAAEMCAKYKLILDLHGTHKPAGLNRTYPNVLNFEGVNGLEQMKWSSPSVDQVKYDVMIPFIRQVSGPMDYTQGAMRNASKGNYYPCYSEPMSQGTRCRQLALYVVFESPFNMLCDTPSNYMREPESTAFIAEIPTVWDESIVLDGKMGEYIVTARRKGDVWYVGGITDWSARDIEVDCSFLGDKSYHATLFKDGVNAHRAGRDYKCESFPIKKDGKLKVHLAPGGGFALKIK | soluble
9 | RHQVESSPLFRALALRCNQTMVTLRSANMFHAYGFLAKVFEILAKHKISVDLITTSEISVSLTLDQTDTSGGAPQLPQAAREELEELCKVEVEHDLCLVALIGNKMSERKGYAKQVFGTLEDLNLRMICYGASPHNLCFLVNESVAKQAIQKLHTELFEQ | not soluble
10 | RKLHAEELLRLAMAHLRNQGKPVRIVDIAAGHGRYILESLRGVEPLPESILLRDYSDINVRDGSLLIEQKDLEDIARFVKGDAFDRNDLATLDPKPTLAVVSGLYELFSSNQMVGDSLAGLAAAVEPGGYLVYTGQPWHPQLELIARALTSHREGQAWVMRRRSQSEMDQLVEAAGFRKITQRVDEWGIFTVSLAQRIQ | not soluble
11 | RKLTMNSNYKREDFVNETEVRWCPGCGDYAILAALQRVLPELGLPPEQHVFVSGIGCAGRLPYYMNTYGFHTIHGRATAVATGLKAMREDLCVWVITGDGDALSIGGNHLLHILRRNVNVNILLFNNQVYGLTKGQFSPTSQKGQVTKTSPKGVTSEPINPIMIALASGASFVARAVDKDPVHLASVLKKAYEHKGCSFVEIYQDCNIFNHGAFDDFAVKNNRAENTIILEDGQPLVFGAQKEKALQLDDEQFVQISIDEKTLYKHDEKNLISAMRLARLTFPDYPVPLGVYYQKDRERFTLSQEVKKRPEDLP | not soluble
12 | RKNSQSETFKVGVLQYVSHNALDEIYRGIKAGLKEEGYSGKKIKIDFMNAEGDQSKVQTMSQTLVNHKNDVLVGIATPAAQGLASATKKTPIIMGAVTDPVGAKLVKDLKKPNGNVTGVSDKTPISDQVSLIKKLTPDVKTVGILYSSSEDNSKSQVEEFKKIAEKKGYKVLEYSVPSTNEIATTMNVMLDKTDAVWIPLDNTIASAFPTVVSAAKTAKKPIYPSVDTMVTEGGLASVVVDQYKLGVATGKMAVKVFEGKKVSQLPVDIFDKGTPVVNKKVAKELGIDIPSDILKKAKQQKNQ | not soluble
13 | RKQDTQRALHLLEEYRSKLSQTEDRQLRSSIERVISIFQSNLFQALIDIQEFYEVTLLDN | soluble
14 | RLCKALYSFQARQDDELNLEKGDIVIIHEKKEEGWWFGSLNGKKGHFPAAYVEELPSNAGNTATKA | soluble
15 | RLIVGKHHWKIEKQPEWYVKAVRKTIAALPSGYAEAADWLDVTENALFNRLRADGDQIFPLGWAMVLQRAGGTHFIADAVAQSANGVFVSLPDVEDVDNADINQRLLEVIEQIGSYSKQIRSAIEDGVVEPHEKTAINDELYLSISKLQEHAALVYKIFCISESNDARECAAPGVVASIASGCGETNA | soluble
16 | RLLKVPVFVHESDLSMGLANKIAYKFATIMYTTFEQSKDLIKTKHIGAVTKVMDCKKSFENTDLTSIKEAFDPNLKTLLFIGGSAGAKVFN | not soluble
17 | RNMDASPLAKRNSLQLFTDGQEKFQALFEDIRAAKETVHVEYYAFFNDTIGNQFLDVLIEKLHEGVEVYLIYDPWGSPGANKKFFARYVDAGGKVAPFITSRDMIRKTRLNYHLHRKIVVIDGKIGWTGGFNVGDQYLNVTEKFGYWRDTHIRLVGTAVFSLQEIFIMDWNASVKYPEERMTYHEKYFKLPEDHEVEHLSLQVVSDGPDSEEEILKSG | not soluble
18 | RNRQQRPGTIKHGSALDVLLSMGFPRARAQKALASTGGRSVQTACDWLFSH | soluble
19 | RPQNTNSWQKDSIEGIDIMLAMDVSGSMQAMDFKPNRLEAAKDVAISFINNRPNDNIGMVTFAGESFTQCPLTTDHTVLLNMVQDLQ | soluble
20 | RQRSLSTSGESLYHVLGLDKNATSDDIKKSYRKLALKYHPDKNPDNPEAADKFKEINNAHAILTDATKRNIYDKYGSLGLYVAEQFGEENVNTYFV | soluble
21 | RTEVVAVALDTSLEELKGRFVESGISKIIVYDGNIDNVVGYIHSSEMFRSPKDWRNHVKEVPIVPETMAAHKLMKLFMQQKKTIAVVVDEFGGTSGIVSLEDLVEEIFGDIEDEHDNTSYICKQIGE | not soluble
22 | RWYQRYLNPDRRHLAIDPYICGTVLTYSSDAPIGDSAPTTSCYMTGMPSNTGFVSTYPVSSGDADLIPVDKARAYSPLATFLEAAKIMKGKKTGLVVTCHFPHATPADCSAHSYSRKKYDWIAAQMVHQNLDVVLGGGTHYLHPELQSVLNSRGYGLFLDDLNGMRTYAGDRMWALFGKREMPYDLDRDTTQIPSLEEMTRLAIEKLNRSEEGFFLMVEGSKVDWAAHANDPVGIATEYLAFDRACAVAFDFARRDGQTAVIIVPDHGNSGVSIGKQSVKDYDKRSAKDLFDQLCRFRLTADGLAGRLADTPADKVQGLVSNICGFELDAKELEALYNCPDYNHSPIPKEQRRQTEESLYSGSLSTFIASLYTKHTSIGFTTHGHTAEEVLLAAYHPQDTRPMGMVINYELNDYLCRLFELGSQLPVLTDKIFAPHTEVFQGMSYSIKDGKKEGELPVLEVKKGSHRLLASPFSNTVIFNKKAIDLSSVVVYVDKTKTFYLPRELRSLFGE | not soluble
23 | SAAHQMDSITYSNNVTQQYIQPQSLQDISAVEDEIQNKIEAARQESKQLHAQINKAKHKIQDASLFQMANKVTSLTKNKINLKPNIVLKGHNNKISDFRWSRDSKRILSASQDGFMLIWDSASGLKQNAIPLDSQWVLSCAISPSSTLVASAGLNNNCTIYRVSKENRVAQNVASIFKGHTCYISDIEFTDNAHILTASGDMTCALWDIPKAKRVREYSDHLGDVLALAIPEEPNSENSSNTFASCGSDGYTYIWDSRSPSAVQSFYVNDSDINALRFFKDGMSIVAGSDNGAINMYDLRSDCSIATFSLFRGYEERTPTPTYMAANMEYNTAQSPQTLKSTSSSYLDNQGVVSLDFSASGRLMYSCYTDIGCVVWDVLKGEIVGKLEGHGGRVTGVRSSPDGLAVCTGSWDSTMKIWSPGYQ | not soluble
24 | SAKFVIAGRADCPYYAKTELVADYLQKNLPDFRIHKITQRPEVWEDWLKDVCEKNKWSHKNSPIIWRELLDRGGKGLLLGGYNEFLEHAQLYYDVTSSMTTELMMVIAQENLGAHIEKEQEEEALKTCINPLQVWITSEWVKREFVAILKNLTTTGRQFGGILAAHSIATTLKYWYHGSPPGEIVSLGILSEGQFGIPKGIVFSMPVKFENGTWVVLTDLKDVEISEQIMTRMTSDLIQEKLVALGDKIHFQPYQSDTPRTNTLHPSIQSSWHSVLTITIRKR | soluble
25 | SAMRQTPLTCSGHTRPVVDLAFSGITPYGYFLISACKDGKPMLRQGDTGDWIGTFLGHKGAVWGATLNTEATKAATAAADFTAKVWDAVTGDEVLTLAHKHIVKSVNFTQDSNYLLTGGNDKVLRIYDLSKPEAEPQEIAGHTSAIKKALWCNNDQQILSAADDKTIRLWDKNTNEAVKTLSFDASVSSMEYIPDGETLVITYGRTIAFYNAHSLDLIKTVDAPASIHSASLHPDKDFFVAGGDDFKLYKYDYTTKEEMESYKGHFGPVHCVRFSPDGELYASGSEDGTLRLWQTAVGKTYGLWKCVLPEELSSENSEALYCPPAEIKA | soluble
26 | SAQKPKVDPHVGRLGYLQALVTEFQETQSQDAKEQVLANLANFAYDPSNYEYLRQLQVLDLFLDSLSEENETLVEFAIGGLCNLCPDRANKEHILHAGGVPLIINCLSSPNEETVLSAITTLMHLSPPGRSFLPELTATPVVQCMLRFSLSASARLRNLAQIFLEDFCSPRQVAEARSRQAHSALGIPLPRSVAPRQR | soluble
27 | SASGYQFGSVDQVEGGSVQYTRKYLGTGNLNDLYVGIGATPFKNFSIGANASSLFGRFTHSRQVIFSTEAPYNPVHLSTLYLKAAKFDFGMQYHLLLKSDRSLVIGAVYSPRVKMHSELTQIKNQVQNGVVVESETQEYIKGMDYYTLPHTLGIGFSYEKKDKLLLGADVQYSKWKGEKFYKSDCKFQDRIRVSLGGEIIPDINAVGMWPKVRYRFGLHGENSYLKVPTKGGV | not soluble
